Substrate in the series “purified protein”: CCCCCC=O
The series can be described thus: purified protein. The following applies: NADH/PMS reducing system, catalase, 80 uM ferrous ammonium sulfate, 100 mM HEPES, 100 mM KCl, pH 7.2, room temperature.

Substrate in series [1]: CCCCCCCC=O
The series can be described thus: GC headspace quantification of alkane product. It is filed as biochemical, Synechococcus elongatus. The following applies: NADH/PMS reducing system, catalase, 80 uM ferrous ammonium sulfate, 100 mM HEPES, 100 mM KCl, pH 7.2, 37 °C.

Substrate in series [2]: CCCCCCC=O
Put plainly: GC headspace quantification of alkane product. It is filed as biochemical, Synechococcus elongatus. The following applies: NADH/PMS reducing system, catalase, 80 uM ferrous ammonium sulfate, 100 mM HEPES, 100 mM KCl, pH 7.2, 37 °C.

Substrate in series [3]: CCCCCCCCC=O
The series can be described thus: GC headspace quantification of alkane product. As to conditions: NADH/PMS reducing system, catalase, 80 uM ferrous ammonium sulfate, 100 mM HEPES, 100 mM KCl, pH 7.2, 37 °C. It is filed as biochemical, Synechococcus elongatus.

The values below come from paper PMC5007808, “Structure-oriented substrate specificity engineering of aldehyde-deformylating oxygenase towards aldehydes carbon chain length” (Biotechnology for Biofuels, 2016).

Changes are numbered by the printed parent chain. Names and notes keep the numbering of the source.

B1: cADO-1593 (Synechococcus elongatus PCC 7942 = FACHB-805) (protein)
chain: MPQLEASLELDFQSESYKDAYSRINAIVIEGEQEAFDNYNRLAEMLPDQRDELHKLAKMEQRHMKGFMACGKNLSVTPDMGFAQKFFERLHENFKAAAAEGKVVTCLLIQSLIIECFAIAAYNIYIPVADAFARKITEGVVRDEYLHRNFGEEWLKANFDASKAELEEANRQNLPLVWLMLNEVADDARELGMERESLVEDFMIAYGEALENIGFTTREIMRMSAYGLAAV
notes: full length, codon-optimized gene in pET-28a, His-tag (nickel column), E. coli BL21(DE3); apo enzyme reconstituted with Fe(II)
For B1, the Michaelis-Menten constant (Km) (commonly the concentration of substrate that gives half-maximal velocity) in “purified protein” was determined as 930 ± 100 µM; in series [1] it was 180 ± 30 µM; in series [2] it was 590 ± 70 µM; in series [3] it was 69 ± 8.7 µM. The catalytic constant (kcat) (commonly the number of substrate molecules converted per active site and unit of time at saturation) in the series “purified protein” stood at 0.03 s⁻¹; in series [1] it was 0.0233 ± 0.001 s⁻¹; in series [2], 0.0132 ± 0.0005 s⁻¹; in series [3], 0.0102 ± 0.000333 s⁻¹. The catalytic efficiency (kcat/Km) (as a rule, the turnover number divided by the Michaelis constant) in the series “purified protein” was determined as 31.7 M⁻¹ s⁻¹; in series [1], 130 ± 5 M⁻¹ s⁻¹; in series [2], 21.7 ± 1.67 M⁻¹ s⁻¹; in series [3], 150 ± 8.33 M⁻¹ s⁻¹.

B2: cADO-1593 (Synechococcus elongatus PCC 7942 = FACHB-805; A121F) (protein)
chain: B1 chain with A121F
notes: as for B1
Turning to B2, the Km in “purified protein” came out at 960 ± 50 µM; in series [1] it was 180 ± 36 µM; in series [2], 560 ± 60 µM; in series [3], 140 ± 22 µM. In addition, the kcat turned out to be 0.115 s⁻¹ in “purified protein”, 0.0163 ± 0.001 s⁻¹ in series [1], 0.025 ± 0.00167 s⁻¹ in series [2] and 0.0128 ± 0.000667 s⁻¹ in series [3]. For the same protein, the kcat/Km came to 120 M⁻¹ s⁻¹ in the series “purified protein”, 90 ± 5 M⁻¹ s⁻¹ in series [1], 45 ± 3.33 M⁻¹ s⁻¹ in series [2] and 90 ± 5 M⁻¹ s⁻¹ in series [3].
